# Data as given in US20210324035A1 (University of California, published 2021).
# B1: 3A1 TCR, murinized (murine TCR constant domains) (TCR, V domains shown)
# V domain 1: GQQLNQSPQSMFIQEGEDVSMNCTSSSIFNTWLWYKQDPGEGPVLLIALYKAGELTSNGRLTAQFGITRKDSFLNISASIPSDVGIYFCAGFLDSNYQLIWGAGTKLIIKP
# V domain 2: EAQVTQNPRYLITVTGKKLTVTCSQNMNHEYMSWYRQDPGLGLRQIYYSMNVEVTDKGDVPEGYKVSRKEKRNFPLILESPSPNQTSLYFCASASGYRTDTQYFGPGTRLTVLE
# notes: Full-length TCR on transduced Jurkat cells or primary human T cells; Human variable regions with mouse constant regions; also called 3A1 muTCR
# B2: 3A1 TCR (TCR, V domains shown)
# Valpha: B1 V domain 1
# Vbeta: EAQVTQNPRYLITVTGKKLTVTCSQNMNHEYMSWYRQDPGLGLRQIYYSMNVEVTDKGDVPEGYKVSRKEKRNFPLILESPSPNQTSLYFCASASGYRTDTQYFGPGTRLTVL
# B3: 5G6 TCR (TCR, V domains shown)
# Valpha: DAKTTQPNSMESNEEEPVHLPCNHSTISGTDYIHWYRQLPSQGPEYVIHGLTSNVNNRMASLAIAEDRKSSTLILHRATLRDAAVYYCILRTSGAGSYQLTFGKGTKLSVIP
# Vbeta: SAVISQKPSRDICQRGTSLTIQCQVDSQVTMMFWYRQQPGQSLTLIATANQGSEATYESGFVIDKFPISRPNLTFSTLTVSNMSPEDSSIYLCSAGGAGASDTQYFGPGTRLTVL
# B4: 2B8 TCR, murinized (murine TCR constant domains) (TCR, V domains shown)
# V domain 1: GQQVMQIPQYQHVQEGEDFTTYCNSSTTLSNIQWYKQRPGGHPVFLIQLVKSGEVKKQKRLTFQFGEAKKNSSLHITATQTTDVGTYFCADPNFGNEKLTFGTGTRLTIIP
# V domain 2: EAQVTQNPRYLITVTGKKLTVTCSQNMNHEYMSWYRQDPGLGLRQIYYSMNVEVTDKGDVPEGYKVSRKEKRNFPLILESPSPNQTSLYFCASSLNPFATNEKLFFGSGTQLSVLE
# B5: 2B8 TCR (TCR, V domains shown)
# Valpha: B4 V domain 1
# Vbeta: EAQVTQNPRYLITVTGKKLTVTCSQNMNHEYMSWYRQDPGLGLRQIYYSMNVEVTDKGDVPEGYKVSRKEKRNFPLILESPSPNQTSLYFCASSLNPFATNEKLFFGSGTQLSVL
# B6: 1E4 TCR, murinized (murine TCR constant domains) (TCR, V domains shown)
# V domain 1: KQEVTQIPAALSVPEGENLVLNCSFTDSAIYNLQWFRQDPGKGLTSLLLIQSSQREQTSGRLNASLDKSSGRSTLYIAASQPGDSATYLCAVSTAYSGGGADGLTFGKGTHLIIQP
# V domain 2: DTGVSQNPRHKITKRGQNVTFRCDPISEHNRLYWYRQTLGQGPEFLTYFQNEAQLEKSRLLSDRFSAERPKGSFSTLEIQRTEQGDSAMYLCASSPPTVRVYGYTFGSGTRLTVVE
# B7: 1E4 TCR (TCR, V domains shown)
# Valpha: B6 V domain 1
# Vbeta: DTGVSQNPRHKITKRGQNVTFRCDPISEHNRLYWYRQTLGQGPEFLTYFQNEAQLEKSRLLSDRFSAERPKGSFSTLEIQRTEQGDSAMYLCASSPPTVRVYGYTFGSGTRLTVV
# B8: 9D2 TCR, murinized (murine TCR constant domains) (TCR, V domains shown)
# V domain 1: QKEVEQNSGPLSVPEGAIASLNCTYSDRGSQSFFWYRQYSGKSPELIMFIYSNGDKEDGRFTAQLNKASQYVSLLIRDSQPSDSATYLCAVDDKIIFGKGTRLHILP
# V domain 2: DAGVIQSPRHEVTEMGQEVTLRCKPISGHDYLFWYRQTMMRGLELLIYFNNNVPIDDSGMPEDRFSAKMPNASFSTLKIQPSEPRDSAVYFCASSLGQPSTDTQYFGPGTRLTVLE
# Experiments:
# [1] = target: T1, HLA-A*02:01/NY-ESO-1 157-165 (…) (Homo sapiens; human); experiment: flow cytometry, A*02:01/NY157-165 dextramer staining of TCR-transduced human T cells from the blood of NSG mice
# [2] = target: T1, HLA-A*02:01/NY-ESO-1 157-165 (…); experiment: flow cytometry, dextramer MFI on TCR-transduced Jurkat cells
# [3] = target: T1, HLA-A*02:01/NY-ESO-1 157-165 (…); experiment: flow cytometry, dextramer MFI on CD8+ Jurkat against Jurkat cells
# [4] = target: T2, NY-ESO-1 (CTAG1B) peptide on HLA-A*02:01 (human); experiment: value cited from Robbins et al. 2008 (ref 37); not measured in this filing
# T2 peptide: SLLMWITQC
# [5] = target: T2, NY-ESO-1 (CTAG1B) peptide on HLA-A*02:01; experiment: multimer staining
# [6] = target: T3, NY-ESO-1 (CTAG1B) peptide on HLA-B*07:02 (human); experiment: cytokine release
# T3 peptide: APRGPHGGAASGL
# [7] = target: HLA-B*18:01/NY-ESO-1 88-96 (Homo sapiens; human); experiment: cell-based or functional assay
# [8] = target: T4, NY-ESO-1 (CTAG1B) peptide on HLA-B*18:01 (human); experiment: multimer staining
# T4 peptide: LEFYLAMPF
# [9] = target: HLA-B*07:02/NY-ESO-1 60-72 (Homo sapiens; human); experiment: cell-based or functional assay
# [10] = target: T3, NY-ESO-1 (CTAG1B) peptide on HLA-B*07:02; experiment: multimer staining
# [11] = target: T2, NY-ESO-1 (CTAG1B) peptide on HLA-A*02:01; experiment: cytokine release
# [12] = target: T1, HLA-A*02:01/NY-ESO-1 157-165 (…); experiment: cell-based or functional assay
molecule,measurement,setting,value
"1G4 TCR, murinized (murine TCR constant domains)",percent of transduced T cells dextramer+,[1],90%
same,"fold increase of the intensity of dextramer binding, muTCR over parental huTCR",[2],1.4 fold
same,fold increase of dextramer binding in the presence of CD8,[3],3.8 fold
1G4 TCR,Kd,[4],9.3 µM
B1,fold increase of dextramer binding in the presence of CD8,[3],1.9 fold
B2,binding result,[5],recognises
same,binding result,[6],no recognition
B3,binding result,[5],recognises
B4,IL-2 production of TCR-transduced Jurkat cells co-incubated with cognate target cells; fold increase of murinized over fully human TCR,[7],18.6 fold
B5,binding result,[8],recognises
B6,IL-2 production of TCR-transduced Jurkat cells co-incubated with cognate target cells; fold increase of murinized over fully human TCR,[9],1.6 fold
B7,binding result,[10],recognises
same,binding result,[11],no recognition
B8,IFN-γ secretion of TCR-transduced primary T cells co-incubated with peptide-pulsed A2+ K562 cells; functional sensitivity relative to 4A2,[12],10 fold
